Measurements as given in the supplement of paper PMC9732359.
± gives the uncertainty stated by the source.

Assay: protein stability index of a GFP-peptide fusion (yeast GPS) (PSI 1-4); higher = more stable; sorted into four equal gates, so the index is relative within each strain
Procedure, shortened: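 The protein stability index of a peptide was calculated by multiplying its read frequency in each gate by that gate's number and adding the products. The peptides were tiled 17-residue stretches of yeast proteins, fused downstream of GFP on a Cherry-expressing plasmid and carried in yeast as a pooled library. Mid-log cultures in leucine-free medium were sorted into four equal gates by GFP/Cherry ratio, and each gate's plasmids were PCR-amplified and Illumina-sequenced.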

Row | Sequence | protein stability index (doa10∆) | protein stability index (pdr5∆) | protein stability index (san1∆) | protein stability index (ubr1∆)
1 | IQSKRLRNKIAGYTTHL [RPS17A] | 3.16 ± 0.1 | 3.41 ± 0.088 | 3.23 ± 0.065 | 3.36 ± 0.072
2 | NKITNQGVTCLHLAVGK [NAS6] | 1.4 ± 0.2 | 1.83 ± 0.057 |  | 2.01 ± 0.075
3 | NLLSKRNQEKKMEKKKS [SNM1] | 3.09 ± 0.16 | 3.38 ± 0.28 |  | 
4 | EQKITEIEDGQDGGVTP [RPO21] | 3.36 ± 0.081 | 3.38 ± 0.067 | 3.37 ± 0.048 | 3.31 ± 0.067
5 | RILQQLKLDKIIHVLTT [RGR1] | 1.64 ± 0.068 | 1.21 ± 0.053 | 1.72 ± 0.15 | 2.22 ± 0.073
6 | RAAKLAAPENEKPAPVR [RPS15] | 3.21 ± 0.1 | 3.15 ± 0.11 | 2.89 ± 0.073 | 3.36 ± 0.082
7 | RKASCIWLLSYIQYLGH [ECM29] | 1.88 ± 0.06 | 2.15 ± 0.046 | 2.32 ± 0.054 | 1.96 ± 0.036
8 | TVTLNKNREVVQVSKAG [RRP45] | 2.8 ± 0.092 | 2.98 ± 0.075 | 2.76 ± 0.065 | 2.82 ± 0.065
9 | ILDGQDVEENRSEFIES [YJR042W/NUP85] | 3.13 ± 0.09 | 3.2 ± 0.071 | 3.48 ± 0.072 | 3.27 ± 0.038
10 | DGWVKLTYKSELSKSRA [YMR153W/NUP53] | 1.85 ± 0.062 | 1.88 ± 0.04 | 1.95 ± 0.083 | 1.84 ± 0.032
11 | ALNMLPSEILHLILDKL [GRR1] | 2.37 ± 0.13 | 2.07 ± 0.073 | 1.95 ± 0.13 | 2.03 ± 0.045
12 | DNEQNLESDFVTGASQF [PRE2] | 2.92 ± 0.095 | 3.33 ± 0.098 | 3.23 ± 0.077 | 2.96 ± 0.076
13 | FTNRIPSKTPEVYMRYR [SWI3] | 2.08 ± 0.052 | 1.88 ± 0.057 | 2.35 ± 0.068 | 2.03 ± 0.054
14 | FSEGTSADREIQRTLME [RPT4] | 3.41 ± 0.14 | 3.46 ± 0.084 | 3.29 ± 0.091 | 3.1 ± 0.087
15 | NNNHKDKKLLRRLLNLY [SWI1] | 2.88 ± 0.054 | 2.93 ± 0.054 | 2.92 ± 0.058 | 3.03 ± 0.054
16 | STCIVSLIRNNLHAEGW [ECM29] | 1.21 ± 0.052 | 1.47 ± 0.068 | 2 ± 0.077 | 1.64 ± 0.067
17 | ALSYAALILADSEIEIS [RPP1A] | 1.8 ± 0.058 | 1.93 ± 0.062 | 1.78 ± 0.06 | 1.9 ± 0.04
18 | DVEENRSEFIESLLNWI [YJR042W/NUP85] | 3.19 ± 0.12 | 3.08 ± 0.085 | 3.35 ± 0.14 | 3.34 ± 0.069
19 | SMKANTSTNPNGLGTSH [ARP7] | 3.22 ± 0.093 | 3.41 ± 0.098 | 2.95 ± 0.078 | 3.27 ± 0.075
20 | TGQNFLTSNISSLVRSC [REC8] | 3.21 ± 0.12 | 2.78 ± 0.08 | 2.54 ± 0.099 | 2.96 ± 0.091
21 | KMENLMRLIKRVRAESL [YJL039C/NUP192] | 1.49 ± 0.083 | 1.19 ± 0.1 | 1.32 ± 0.23 | 1.12 ± 0.099
22 | QTKEIKTERVEDQKVVD [RPL6B] | 3.55 ± 0.088 | 3.33 ± 0.11 | 3.48 ± 0.068 | 3.53 ± 0.076

Row | Sequence | protein stability index (doa10∆) | protein stability index (pdr5∆) | protein stability index (san1∆) | protein stability index (ubr1∆)
23 | TVSILQESSSLRLLEVT [POP8] | 2.2 ± 0.055 | 2.38 ± 0.048 | 2.4 ± 0.083 | 2.33 ± 0.033
24 | VVEPEHMADAKIMPKDI [SIR4] | 3.28 ± 0.1 | 3.35 ± 0.071 | 3.33 ± 0.085 | 3.12 ± 0.081
25 | KILSPTMYMEVYTAIYN [CDC53] | 1.58 ± 0.058 | 1.62 ± 0.061 | 1.63 ± 0.08 | 1.74 ± 0.055
26 | KAHPNFPIALQWTGGRG [FAS1] | 2.62 ± 0.13 | 2.64 ± 0.12 | 2.2 ± 0.096 | 2.01 ± 0.092
27 | PNSERETDHANTENNDP [IRR1] | 2.69 ± 0.073 | 2.87 ± 0.052 | 2.73 ± 0.045 | 2.88 ± 0.044
28 | DDHNGEVWSVSWNLTGT [YGL100W/SEH1] | 2.73 ± 0.069 | 3.04 ± 0.073 | 2.64 ± 0.096 | 2.73 ± 0.085
29 | TDLGKDIPFFPSSEKPN [SSN2] | 2.7 ± 0.059 | 2.9 ± 0.077 | 2.57 ± 0.11 | 3.07 ± 0.037
30 | VMYGTAYKFEEVSKDLI [RPB8] | 2.9 ± 0.062 | 3.18 ± 0.061 | 3.34 ± 0.044 | 3.09 ± 0.051
31 | RIAVLHQKTKTLASLSI [YGL172W/NUP49] | 2.31 ± 0.081 | 2.25 ± 0.062 | 2.26 ± 0.07 | 2.75 ± 0.066
32 | TANDQYSSILGNSFNKS [YCG1] | 3.13 ± 0.069 | 3.18 ± 0.067 | 3.31 ± 0.038 | 3.46 ± 0.058
33 | NKLLRRKLMEMENILQR [YIL149C/MLP2] | 3.41 ± 0.2 |  | 3.33 ± 0.11 | 
34 | QVRNQVFMLDTKRLGTP [RGR1] | 2.77 ± 0.099 | 2.46 ± 0.11 | 2.75 ± 0.084 | 2.89 ± 0.17
35 | FLARVIKEKFDEFIKTH [IRR1] | 2.79 ± 0.081 | 2.83 ± 0.08 | 2.8 ± 0.059 | 2.88 ± 0.074
36 | KKPRKPRQTKKAKAQAQ [PGD1] | 3.2 ± 0.13 | 3.48 ± 0.096 | 3.22 ± 0.062 | 3.12 ± 0.1
37 | VKGKNCVVLGCERRSTL [PRE6] |  |  | 2.84 ± 0.23 | 
38 | DLKESMVKGLLKSFTES [ECM29] | 3.34 ± 0.26 | 3 ± 0.19 | 2.8 ± 0.1 | 3.34 ± 0.096
39 | KSGTSHDAIFSIYKYIH [SNF12] | 2.51 ± 0.059 | 2.66 ± 0.054 | 2.34 ± 0.068 | 2.2 ± 0.046
40 | NFAHSDSLSVPKVSAGD [SIR4] | 2.95 ± 0.11 | 2.98 ± 0.12 | 2.76 ± 0.054 | 3.27 ± 0.11
41 | EEYKQLVKDRKFLREVF [RPO21] | 3.32 ± 0.078 | 3.49 ± 0.076 | 2.81 ± 0.084 | 2.98 ± 0.11
42 | LKLSQAFGSSATDISGE [YJR042W/NUP85] | 2.76 ± 0.065 | 2.05 ± 0.067 | 2.56 ± 0.059 | 2.14 ± 0.048
43 | GGSRGGGSNYMSNLPFG [RPC31] | 2.94 ± 0.27 | 3.21 ± 0.18 |  | 3.14 ± 0.17
